Source: patent publication US20200317768A1 (published 2020)
Changes are numbered by the printed parent chain.

T1: cynomolgus monkey FcγRIIa1 extracellular domain, His-tagged (cynomolgus monkey)
T1 construct: also called cyno FcγRIIa1; cynoFcgRIIa1; not shown: C-terminal His-tag
T1 chain: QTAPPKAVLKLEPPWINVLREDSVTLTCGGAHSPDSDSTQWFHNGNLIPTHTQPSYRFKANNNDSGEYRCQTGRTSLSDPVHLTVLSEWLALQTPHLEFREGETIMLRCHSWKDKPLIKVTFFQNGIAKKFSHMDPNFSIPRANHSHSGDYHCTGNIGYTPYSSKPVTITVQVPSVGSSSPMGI

T2: cynomolgus monkey FcγRIIa2 extracellular domain, His-tagged (cynomolgus monkey)
T2 construct: also called cyno FcγRIIa2; cynoFcgRIIa2; not shown: C-terminal His-tag
T2 chain: T1 chain with P95T, T121A, I127K, A128S, K130N, D135N, R142Q

T3: cynomolgus monkey FcγRIIa3 extracellular domain, His-tagged (cynomolgus monkey)
T3 construct: also called cyno FcγRIIa3; cynoFcgRIIa3; not shown: C-terminal His-tag
T3 chain: T1 chain with P95T, T121A, A128S, H133P, D135N

T4: cynomolgus monkey FcγRIIb extracellular domain, His-tagged (cynomolgus monkey)
T4 construct: also called cyno FcγRIIb; cynoFcγRIIb; not shown: C-terminal His-tag
T4 chain: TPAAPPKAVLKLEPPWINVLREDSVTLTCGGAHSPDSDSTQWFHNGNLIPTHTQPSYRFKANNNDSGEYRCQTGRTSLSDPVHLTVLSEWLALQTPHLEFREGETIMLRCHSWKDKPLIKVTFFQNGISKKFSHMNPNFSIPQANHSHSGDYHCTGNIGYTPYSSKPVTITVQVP

T5: cynomolgus monkey FcγRIIIaS extracellular domain, His-tagged (cynomolgus monkey, UniProt Q8SPW2 21-206 at identity 1.00))
T5 construct: also called cyno FcγRIIIaS; cynoFcγRIIIaS; not shown: C-terminal His-tag
T5 chain: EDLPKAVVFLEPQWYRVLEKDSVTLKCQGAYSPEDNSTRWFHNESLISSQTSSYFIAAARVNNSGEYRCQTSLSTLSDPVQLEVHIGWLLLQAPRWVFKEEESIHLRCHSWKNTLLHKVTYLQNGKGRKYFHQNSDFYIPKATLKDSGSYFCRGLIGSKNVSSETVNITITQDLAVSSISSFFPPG

T6: human FcγRIIaH extracellular domain, His-tagged (human, UniProt P12318 34-217)
T6 construct: also called human FcγRIIa (type H); FcgRIIaH; not shown: C-terminal His-tag
T6 sequence: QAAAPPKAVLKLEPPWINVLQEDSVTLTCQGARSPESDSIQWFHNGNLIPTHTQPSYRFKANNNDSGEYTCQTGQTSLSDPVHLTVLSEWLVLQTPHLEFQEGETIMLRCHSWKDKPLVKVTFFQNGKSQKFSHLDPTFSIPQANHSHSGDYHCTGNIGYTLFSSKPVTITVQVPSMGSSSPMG

T7: human FcγRIIaR extracellular domain, His-tagged (human, UniProt P12318 34-217)
T7 construct: also called human FcγRIIa (type R); FcgRIIaR; not shown: C-terminal His-tag
T7 chain: T6 sequence with H134R

T8: human FcγRIIb extracellular domain, His-tagged (human, UniProt P31994 43-217)
T8 construct: also called FcgRIIb (human); not shown: C-terminal His-tag
T8 sequence: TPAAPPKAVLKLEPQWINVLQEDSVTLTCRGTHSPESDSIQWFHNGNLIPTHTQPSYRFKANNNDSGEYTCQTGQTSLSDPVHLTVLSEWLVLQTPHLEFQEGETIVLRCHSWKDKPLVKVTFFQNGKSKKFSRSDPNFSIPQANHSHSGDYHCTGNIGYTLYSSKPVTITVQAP

B1: M103205H795-MY443/M103202L889-SK1 (antibody, human IgG1, kappa)
heavy: QVTLKESGPVLVKPTETLTLTCTVSGIDLSHDDISWVRQAPGKGLEWVGIISYAGSTYYASWAKGRLTISKDTSKNQVVLTMTNMDPVDTATYYCARGVPAYSHGGDLWGQGTLVTVSSASTKGPSVFPLAPSSKSTSGGTAALGCLVKDYFPEPVTVSWNSGALTSGVHTFPAVLQSSGLYSLSSVVTVPSSSLGTQTYICNVNHKPSNTKVDKKVEPKSCDKTHTCPPCPAEELLTGPSVFLFPPKPKDTLMISRTPEVTCVVVDVSDEDPEVKFNWYVDGVEVHNAKTKPREEQYNSTYRVVSVLTVLHQDWLNGKEYKCKVSNKALPKPIEKTISKAKGQPREPQVYTLPPSREEMTKNQVSLTCLVKGFYPSDIAVEWESNGQPENNYKTTPPVLDSDGSFFLYSKLTVDKSRWQQGNVFSCSVMHEALHNHYTQKSLSLSP
light: DIVMTQSPATLSLSPGERATLSCTSSQSVYHANWLSWFQQKPGQPPKLLIYWASTLAYGVPSRFSGSGSGTDFTLTISSLQPEDAATYYCAGGYGGGRYAFGQGTKVEIKRTVAAPSVFIFPPSDEQLKSGTASVVCLLNNFYPREAKVQWKVDNALQSGNSQESVTEQDSKDSTYSLSSTLTLSKADYEKHKVYACEVTHQGLSSPVTKSFNRGEC
notes: copies: 2 + 2
B2: M103205H795-MY445/M103202L889-SK1 (antibody, human IgG1, kappa)
heavy: B1 heavy with E234G
light: B1 light
notes: copies: 2 + 2
B3: M103205H795-MY444/M103202L889-SK1 (antibody, human IgG1, kappa)
heavy: B1 heavy with E234F
light: B1 light
notes: copies: 2 + 2
B4: M103205H795-MY460/M103202L889-SK1 (antibody, human IgG1, kappa)
heavy: B1 heavy with A233E, E234P
light: B1 light
notes: copies: 2 + 2
B5: M103205H795-MY461/M103202L889-SK1 (antibody, human IgG1, kappa)
heavy: B1 heavy with A233F, E234P
light: B1 light
notes: copies: 2 + 2
B6: M103205H795-MY447/M103202L889-SK1 (antibody, human IgG1, kappa)
heavy: B1 heavy with E234I
light: B1 light
notes: copies: 2 + 2
B7: M103205H795-MY459/M103202L889-SK1 (antibody, human IgG1, kappa)
heavy: B1 heavy with A233D, E234P
light: B1 light
notes: copies: 2 + 2
B8: M103205H795-MY463/M103202L889-SK1 (antibody, human IgG1, kappa)
heavy: B1 heavy with A233H, E234P
light: B1 light
notes: copies: 2 + 2
B9: M103205H795-MY462/M103202L889-SK1 (antibody, human IgG1, kappa)
heavy: B1 heavy with A233G, E234P
light: B1 light
notes: copies: 2 + 2
B10: M103205H795-MY446/M103202L889-SK1 (antibody, human IgG1, kappa)
heavy: B1 heavy with E234H
light: B1 light
notes: copies: 2 + 2
B11: M103205H795-MY448/M103202L889-SK1 (antibody, human IgG1, kappa)
heavy: B1 heavy with E234K
light: B1 light
notes: copies: 2 + 2

Molecular target: T1, cynomolgus monkey FcγRIIa1 …
Assay: SPR (BIACORE), captured antibody, FcgR as analyte

| Kd [nM] | Binder |
| --- | --- |
| 4800 | B1 |
| 5600 | B2 |
| 1200 | B3 |
| 3100 | B4 |
| 1300 | B5 |
| 990 | B6 |
| 5000 | B7 |
| 2100 | B8 |
| 1900 | B9 |
| 2500 | B10 |
| 9600 | B11 |

Molecular target: T2, cynomolgus monkey FcγRIIa2 …
Assay: SPR (BIACORE), captured antibody, FcgR as analyte

| Kd [nM] | Binder |
| --- | --- |
| 5000 | B1 |
| 5500 | B2 |
| 1100 | B3 |
| 3100 | B4 |
| 1800 | B5 |
| 880 | B6 |
| 4700 | B7 |
| 1800 | B8 |
| 1600 | B9 |
| 2200 | B10 |
| 7500 | B11 |

Molecular target: T3, cynomolgus monkey FcγRIIa3 …
Assay: SPR (BIACORE), captured antibody, FcgR as analyte

| Kd [nM] | Binder |
| --- | --- |
| 8800 | B1 |
| 14000 | B2 |
| 1900 | B3 |
| 5500 | B4 |
| 3300 | B5 |
| 1050 | B6 |
| 7500 | B7 |
| 4400 | B8 |
| 4200 | B9 |
| 4700 | B10 |
| 21000 | B11 |

Molecular target: T4, cynomolgus monkey FcγRIIb extracellular …
Assay: SPR (BIACORE), captured antibody, FcgR as analyte

| Kd [nM] | Binder |
| --- | --- |
| 1200 | B1 |
| 1400 | B2 |
| 300 | B3 |
| 790 | B4 |
| 470 | B5 |
| 230 | B6 |
| 1100 | B7 |
| 580 | B8 |
| 470 | B9 |
| 630 | B10 |
| 2300 | B11 |

Molecular target: T5, cynomolgus monkey FcγRIIIaS …
Assay: SPR (BIACORE), captured antibody, FcgR as analyte

| Kd [nM] | Binder |
| --- | --- |
| 2600 | B1 |
| 3500 | B2 |
| 1600 | B3 |
| 2700 | B4 |
| 2100 | B5 |
| 1100 | B6 |
| 3200 | B7 |
| 1600 | B8 |
| 1800 | B9 |
| 2900 | B10 |
| 6500 | B11 |

molecular target: T6, human FcγRIIaH extracellular domain, …; assay: SPR (BIACORE), captured antibody, FcgR as analyte

| Kd [nM] | Binder |
| --- | --- |
| 530 | B1 |
| 560 | B2 |
| 110 | B3 |
| 260 | B4 |
| 130 | B5 |
| 97 | B6 |
| 390 | B7 |
| 220 | B8 |
| 240 | B9 |
| 260 | B10 |
| 930 | B11 |

Molecular target: T7, human FcγRIIaR extracellular domain, …
Assay: SPR (BIACORE), captured antibody, FcgR as analyte

| Kd [nM] | Binder |
| --- | --- |
| 640 | B1 |
| 1200 | B2 |
| 140 | B3 |
| 550 | B4 |
| 340 | B5 |
| 98 | B6 |
| 560 | B7 |
| 520 | B8 |
| 490 | B9 |
| 480 | B10 |
| 2200 | B11 |

molecular target: T8, human FcγRIIb extracellular domain, …; assay: SPR (BIACORE), captured antibody, FcgR as analyte

| Kd [nM] | Binder |
| --- | --- |
| 2800 | B1 |
| 4200 | B2 |
| 740 | B3 |
| 2400 | B4 |
| 1700 | B5 |
| 440 | B6 |
| 2500 | B7 |
| 2800 | B8 |
| 1900 | B9 |
| 2400 | B10 |
| 8400 | B11 |

molecular target: T9, human FcγRIIIaV extracellular domain, His-tagged (human, UniProt P08637 17-208); assay: SPR (BIACORE), captured antibody, FcgR as analyte
T9 construct: also called FcgRIIIaV; not shown: C-terminal His-tag
T9 sequence (P08637 17-208 F176V): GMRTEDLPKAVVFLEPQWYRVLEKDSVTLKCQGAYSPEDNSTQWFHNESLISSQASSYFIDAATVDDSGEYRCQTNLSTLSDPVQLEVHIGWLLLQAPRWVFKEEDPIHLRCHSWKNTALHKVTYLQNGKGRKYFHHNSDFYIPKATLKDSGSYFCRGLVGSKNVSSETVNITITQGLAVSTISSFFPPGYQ

| Kd [nM] | Binder |
| --- | --- |
| 5900 | B1 |
| 9500 | B2 |
| 5200 | B3 |
| 6700 | B4 |
| 5400 | B5 |
| 4000 | B6 |
| 8700 | B7 |
| 4300 | B8 |
| 5400 | B9 |
| 7100 | B10 |
| 13000 | B11 |

Molecular target: T2, cynomolgus monkey FcγRIIa2 …
Assay: SPR (BIACORE); KD of SG1 divided by KD of variant;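 note: relative to parent M103205H795-SG1 carrying the SG1 human heavy chain constant region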
Procedure: The kinetic analysis of interactions between these antibodies and FcγR was carried out using BIACORE® T200 or BIACORE® 4000 (GE Healthcare). HBS-EP+ (GE Healthcare) was used as the running buffer, and the measurement temperature was set to 25° C. A chip produced by immobilizing Protein A. Protein A/G or mouse anti-human IgG kappa light chain (BD Biosciences) onto a Series S Sensor Chip CM4 or CM5 (GE Healthcare) by the amine-coupling method was used. […] After the measurement, the antibody captured on the chip was washed off by allowing reaction with 10 mM glycine-HCl, pH1.5 and 25 mM NaOH so that the chip was regenerated and used repeatedly. The sensorgrams obtained as measurement results were analyzed by the 1:1 Langmuir binding model using the BIACORE® Evaluation Software to calculate the binding rate constant ka (L/mol/s) and dissociation rate constant kd (l/s), and the dissociation constant KD (mol/L) was calculated from these values. […] Regarding such interactions, KD values were calculated using the following 1:1 binding model described in BIACORE® T100 Software Handbook BR1006-48 Edition AE.

| KD fold (SG1 = 1) [fold] | Binder |
| --- | --- |
| 1 | B1 |
| 0.9 | B2 |
| 4.6 | B3 |
| 1.6 | B4 |
| 2.5 | B5 |
| 5.3 | B6 |
| 1.1 | B7 |
| 2.3 | B8 |
| 3.2 | B9 |
| 2.3 | B10 |
| 0.7 | B11 |
